What all share (test): Kd (EC50 corrected by depletion factor)
In one series the target is T1, TIA1 (UniProt P31483).
T1 sequence: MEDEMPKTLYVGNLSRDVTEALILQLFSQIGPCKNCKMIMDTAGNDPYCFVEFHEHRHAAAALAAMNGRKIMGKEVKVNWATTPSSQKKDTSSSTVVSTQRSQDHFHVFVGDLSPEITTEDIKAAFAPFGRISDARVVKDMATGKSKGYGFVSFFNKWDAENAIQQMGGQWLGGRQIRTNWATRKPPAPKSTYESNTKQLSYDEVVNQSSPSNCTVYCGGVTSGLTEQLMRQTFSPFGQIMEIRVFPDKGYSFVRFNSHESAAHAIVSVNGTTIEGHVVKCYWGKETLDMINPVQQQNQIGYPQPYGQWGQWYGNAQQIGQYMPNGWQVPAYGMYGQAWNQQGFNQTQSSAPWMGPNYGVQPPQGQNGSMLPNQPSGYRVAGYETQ
A digest of the protocol:
(§1)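 To obtain EC50, data were fitted with a four-parameter log-logistic model; Kd was then EC50 multiplied by a protein-dependent depletion factor. Beforehand, free RNA oligos (0 nM to 30 μM) were pre-incubated with HEK293-FT lysate (2.5 mg protein/well) for 1 h at 4°C. The lysate then spent 30 min at 4°C with the same 5′-amino-C6 oligos coupled to NHS-Sepharose beads, and bound proteins were quantified by label-free LC-MS/MS, normalised to the control.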

Another series has as its target P4HA2 (UniProt O15460). A digest of the protocol: as §1
The target of another series is T2, PARP12 (UniProt Q9H0J9).
T2 sequence: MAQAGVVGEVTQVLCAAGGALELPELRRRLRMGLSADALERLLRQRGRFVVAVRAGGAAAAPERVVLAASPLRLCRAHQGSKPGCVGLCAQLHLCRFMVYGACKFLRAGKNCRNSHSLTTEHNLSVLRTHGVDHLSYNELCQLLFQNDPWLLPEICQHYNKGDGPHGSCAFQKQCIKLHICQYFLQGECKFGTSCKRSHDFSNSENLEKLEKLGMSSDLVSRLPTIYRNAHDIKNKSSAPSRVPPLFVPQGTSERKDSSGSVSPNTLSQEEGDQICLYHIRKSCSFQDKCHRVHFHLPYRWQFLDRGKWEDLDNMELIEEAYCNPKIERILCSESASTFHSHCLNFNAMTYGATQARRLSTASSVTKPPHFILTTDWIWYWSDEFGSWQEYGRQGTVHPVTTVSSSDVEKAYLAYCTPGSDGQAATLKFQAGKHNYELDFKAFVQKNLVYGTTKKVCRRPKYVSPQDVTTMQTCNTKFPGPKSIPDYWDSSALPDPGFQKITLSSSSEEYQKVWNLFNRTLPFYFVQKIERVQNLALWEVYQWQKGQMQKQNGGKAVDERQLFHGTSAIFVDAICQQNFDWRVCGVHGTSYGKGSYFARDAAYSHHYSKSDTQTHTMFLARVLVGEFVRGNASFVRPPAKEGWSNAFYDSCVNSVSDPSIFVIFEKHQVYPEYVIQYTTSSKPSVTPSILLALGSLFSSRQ
A digest of the protocol:
as §1

Another series concerns the target RPSA (UniProt P08865). A digest of the protocol: as §1
Another series concerns the target MRPS18A (UniProt Q9NVS2). In outline: as §1
For another series, the target named is T3, PRPF4 (UniProt O43172).
T3 sequence: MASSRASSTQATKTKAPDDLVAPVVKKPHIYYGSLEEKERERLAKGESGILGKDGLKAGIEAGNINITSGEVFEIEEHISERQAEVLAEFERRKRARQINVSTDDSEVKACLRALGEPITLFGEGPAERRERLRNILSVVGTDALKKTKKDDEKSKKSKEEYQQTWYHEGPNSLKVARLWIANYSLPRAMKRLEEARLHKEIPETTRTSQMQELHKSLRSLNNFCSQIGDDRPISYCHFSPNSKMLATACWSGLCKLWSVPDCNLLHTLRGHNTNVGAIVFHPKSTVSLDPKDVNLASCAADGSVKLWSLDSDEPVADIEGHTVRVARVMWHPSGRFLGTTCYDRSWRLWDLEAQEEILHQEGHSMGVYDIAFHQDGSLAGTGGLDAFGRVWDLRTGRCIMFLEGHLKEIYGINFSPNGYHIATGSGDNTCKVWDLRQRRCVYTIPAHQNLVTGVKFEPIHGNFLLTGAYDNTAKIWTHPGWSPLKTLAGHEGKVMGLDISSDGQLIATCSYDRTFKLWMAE
A digest of the protocol:
as §1

The next series concerns the target DAP3 (UniProt P51398). In outline:
as §1

Another series has as its target T4, PRPF31 (UniProt Q8WWY3).
T4 sequence: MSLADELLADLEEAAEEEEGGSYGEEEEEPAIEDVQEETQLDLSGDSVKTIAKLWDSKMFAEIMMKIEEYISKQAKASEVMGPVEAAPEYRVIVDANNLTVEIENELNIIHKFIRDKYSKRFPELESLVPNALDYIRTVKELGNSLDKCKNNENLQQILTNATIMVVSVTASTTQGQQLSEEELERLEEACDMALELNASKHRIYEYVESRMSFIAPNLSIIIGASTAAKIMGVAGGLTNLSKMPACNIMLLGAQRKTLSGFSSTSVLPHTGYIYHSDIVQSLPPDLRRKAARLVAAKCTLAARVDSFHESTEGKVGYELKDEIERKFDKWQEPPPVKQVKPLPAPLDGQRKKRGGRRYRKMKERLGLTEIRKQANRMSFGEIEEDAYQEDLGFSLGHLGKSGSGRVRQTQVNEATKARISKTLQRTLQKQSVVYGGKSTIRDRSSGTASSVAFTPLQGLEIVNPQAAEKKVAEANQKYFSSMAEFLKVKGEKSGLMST
In outline:
as §1

P4HA2, sequence (O15460 whole entry): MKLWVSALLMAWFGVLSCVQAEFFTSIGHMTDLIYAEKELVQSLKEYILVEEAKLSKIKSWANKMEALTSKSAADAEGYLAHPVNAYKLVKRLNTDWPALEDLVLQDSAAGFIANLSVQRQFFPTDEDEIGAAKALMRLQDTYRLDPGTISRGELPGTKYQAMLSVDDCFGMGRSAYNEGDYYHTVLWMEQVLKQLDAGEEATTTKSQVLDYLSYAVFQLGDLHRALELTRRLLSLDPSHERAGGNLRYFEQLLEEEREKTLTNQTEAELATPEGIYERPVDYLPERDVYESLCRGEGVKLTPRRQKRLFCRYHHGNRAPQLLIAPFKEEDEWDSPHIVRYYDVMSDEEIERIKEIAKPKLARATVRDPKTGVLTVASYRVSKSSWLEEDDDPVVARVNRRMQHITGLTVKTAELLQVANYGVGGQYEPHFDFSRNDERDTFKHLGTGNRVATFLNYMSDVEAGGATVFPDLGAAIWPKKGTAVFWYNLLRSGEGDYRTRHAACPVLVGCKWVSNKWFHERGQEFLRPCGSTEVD

With AAUAAA, the Kd is 158 nM in the series with TIA1, 37.5 nM in the series with P4HA2 and 5400 nM in the series with PARP12.
In the case of CUGUCCU, the figures for the Kd with RPSA and with MRPS18A were 187 nM and 23.9 nM, respectively.
Regarding UAUUUAU, the Kd with PRPF4 was 2640 nM; with DAP3, 37.4 nM; in the series with PRPF31 it was 2850 nM.

Broadly, the Kd is a measure of binding affinity in units of concentration. Read a high Kd as lower affinity.

For the origin of these results see the supplement of paper PMC6379048.
